Assay results from patent US6870033.
Like-named read-outs stand apart in the source and are kept apart here.

T1: recombinant human IL-8, (ser-IL-8)72 (human, UniProt P10145 28-99)
T1 construct: mature; radio-iodinated when used as tracer; also called human wild type IL-8; wt IL-8
T1 sequence (looked up): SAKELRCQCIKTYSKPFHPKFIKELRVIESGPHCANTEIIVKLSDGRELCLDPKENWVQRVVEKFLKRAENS

T2: rhesus IL-8 (rhesus, UniProt P67813 23-101, limits assumed)
T2 sequence (looked up): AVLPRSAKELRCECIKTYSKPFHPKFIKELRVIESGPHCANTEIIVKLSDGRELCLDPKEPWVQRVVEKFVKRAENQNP


What was measured:
[1] = biological target: T1, recombinant human IL-8, (ser-IL-8)72; assay: inhibition of 125I-IL-8 binding to human neutrophils
[2] = biological target: T1, recombinant human IL-8, (ser-IL-8)72; assay: as above; remark: listed apart in the source
[3] = biological target: T1, recombinant human IL-8, (ser-IL-8)72; assay: cell-based or functional assay
[4] = biological target: T2, rhesus IL-8; assay: cell-based or functional assay

| Binder | IC50 [2] [nM] | fold decrease in IL-8 binding (against F(ab)-1) [1] [fold] | also measured |
| --- | --- | --- | --- |
| humanized 6G425 F(ab)-1 (Fab, V domains shown, Fab with human kappa subgroup I light chain and human IgG1 subgroup III heavy chain (vector pEMX1); also called version 1; VI) VH: EVQLVESGGGLVQPGGSLRLSCAASGYSFSSHYMHWVRQAPGKGLEWVGYIDPSNGETTYNQKFKGRFTISRDNSKNTLYLQMNSLRAEDTAVYYCARGDYRYNGDWFFDVWGQGTLVTVSS VL: DIQMTQSPSSLSASVGDRVTITCRSSQSLVHGIGNTYLHWYQQKPGKAPKLLIYKVSNRFSGVPSRFSGSGSGTDFTLTISSLQPEDFATYYCSQSTHVPLTFGQGTKVEIKR | 63 |  | IC50 [1]: 40 nM; fold reduction in binding affinity (against the chimeric F(ab) of Table 4) [1]: 5.5 fold |
| humanized 6G425 F(ab)-2 (Fab, V domains shown, Template F(ab)-1; Fab constant parts as F(ab)-1; also called version 2) VH: EVQLVESGGGLVQPGGSLRLSCAASGYSFSSHYMHWVRQAPGKGLEWVGYIDPSNGETTYNQKFKGRATISRDNSKNTLYLQMNSLRAEDTAVYYCARGDYRYNGDWFFDVWGQGTLVTVSS VL: DIQMTQSPSSLSASVGDRVTITCRSSQSLVHGIGNTYLHWYQQKPGKAPKLLIYKVSNRFSGVPSRFSGSGSGTDFTLTISSLQPEDFATYYCSQSTHVPLTFGQGTKVEIKR | 106 | < 2 |  |
| humanized 6G425 F(ab)-3 (Fab, V domains shown, Template F(ab)-1; Fab constant parts as F(ab)-1; also called version 3) VH: EVQLVESGGGLVQPGGSLRLSCAASGYSFSSHYMHWVRQAPGKGLEWVGYIDPSNGETTYNQKFKGRFTISVDNSKNTLYLQMNSLRAEDTAVYYCARGDYRYNGDWFFDVWGQGTLVTVSS VL: DIQMTQSPSSLSASVGDRVTITCRSSQSLVHGIGNTYLHWYQQKPGKAPKLLIYKVSNRFSGVPSRFSGSGSGTDFTLTISSLQPEDFATYYCSQSTHVPLTFGQGTKVEIKR | 79.8 | < 2 |  |
| humanized 6G425 F(ab)-7 (Fab, V domains shown, Template F(ab)-6; Fab constant parts as F(ab)-1; also called version 16) VH: EVQLVESGGGLVQPGGSLRLSCAASGYSFSSHYMHWVRQAPGKGLEWVGYIDPSNGETTYNQKFKGRFTLSRDNSKNTAYVQMNSLRAEDTAVYYCARGDYRYNGDWFFDVWGQGTLVTVSS VL: DIQMTQSPSSLSASVGDRVTITCRSSQSLVHGIGNTYLHWYQQKPGKAPKLLIYKVSNRFSGVPSRFSGSGSGTDFTLTISSLQPEDFATYYCSQSTHVPLTFGQGTKVEIKR | 38.4 |  |  |
| humanized 6G425 F(ab)-8 (6G4.2.5V19) (Fab, V domains shown) VH: EVQLVESGGGLVQPGGSLRLSCAASGYSFSSHYMHWVKQAPGKGLEWVGYIDPSNGETTYNQKFKGRFTLSRDNSKNTAYLQMNSLRAEDTAVYYCARGDYRYNGDWFFDVWGQGTLVTVSS VL: DIQMTQSPSSLSASVGDRVTITCRSSQSLVHGIGNTYLHWYQQKPGKAPKLLIYKVSNRFSGVPSRFSGSGSGTDFTLTISSLQPEDFATYYCSQSTHVPLTFGQGTKVEIKR |  |  | IC50, neutrophil chemotaxis [3]: 0.12 nM; IC50, neutrophil chemotaxis [4]: 10 nM |
